What was measured:
[1] = biological target: T1, human brain natriuretic peptide, cyclic BNP (1-32c) (human, cyclic: ring closed by a disulfide bond between the two cysteine residues; biotinylated or acridinium-labelled in some assays); test: off-rate assay on yeast-displayed scFv by flow cytometry: biotinylated cyclic BNP (1-32c), chase with unlabelled BNP 1-32c, SA:PE; m2 of the first order decay fit (error 0.00087362, R 0.98912), time axis in sec
T1 construct: also called hBNP; hBNP 1-32

[2] = biological target: T1, human brain natriuretic peptide, cyclic …; test: scFv on yeast; method not described; printed unit µM read as pM (26 pM is said to be 10-fold lower)
[3] = biological target: T1, human brain natriuretic peptide, cyclic …; test: yeast display off-rate assay, flow cytometry, biotinylated cyclic BNP chased with unlabelled BNP, first order decay fit
[4] = biological target: T1, human brain natriuretic peptide, cyclic …; test: yeast display off-rate assay, flow cytometry; t1/2 = ln 2/koff
[5] = biological target: T1, human brain natriuretic peptide, cyclic …; test: off-rate assay on yeast-displayed scFv by flow cytometry: biotinylated cyclic BNP (1-32c), chase with unlabelled BNP 1-32c, SA:PE, first order decay fit

- koff [1]: 0.00474 s⁻¹
- Kd [2]: ~260 pM
- koff [3]: 0.0047 s⁻¹
- half-life (t1/2) [4]: 2.4 min
- koff [5]: 0.0048 s⁻¹
B1: 3-631-436 scFv, unmutated, on yeast (scFv)
scFv: QVQLQQPGAELVRPGASVKLSCKASGYTFTSYWMNWVKQRPEQGLEWIGRIDPYDSETHYNQKFKDKAILTVDKSSSTAFVQLTSLTSEDSAVYYCVSDGYWGAGTTVTVSSGPAKELTPLKEAKVSDVVMTQTPLTLSVTTGQPASISCKSSQSLLDSDGKTYLNWLFQRPGESPKLLIYVVSKLESGVPDRFTGSGSGTDFTLKISRVEAEDLGVYYCLQATHFPWTFGGGTKLEIKRAAALESRGPFEGKPIPNPLLGLDSTRTGHHHHHH

From patent US20080124811A1 (AbbVie / Abbott, published 2008)
